Measured values taken from paper PMC5689134, “Detailed Analysis of Insulin Absorption Variability and the Tissue Response to Continuous Subcutaneous Insulin Infusion Catheter Implantation in Swine” (Diabetes Technology & Therapeutics, 2017).

Test: Insulin lispro absorption PK after 5-U bolus through CSII catheters in swine
Assay type: in vivo
Conditions: for tmax (time-to-peak) / AUC60 (0-60 min after bolus) / Cmax (maximal plasma insulin level) / AUC (0-160 min after bolus, baseline subtracted): mean ± SD; for AUC60 (0-60 min after bolus) / Cmax (maximal plasma insulin level) / AUC (0-160 min after bolus, baseline subtracted): plasma ELISA
Text: We performed an observational study in six swine to evaluate the PK of insulin lispro (U-100 Humalog; Eli Lilly) infused through CSII catheters implanted for 5 days. Six commercial CSII catheters (CCs) and six investigational CSII catheters (ICs) were inserted into the subcutaneous tissue of each swine. Lispro insulin and saline were infused through the CCs and ICs for 5 days using battery powered insulin pumps and the same basal/bolus pattern of delivery. Additional CCs and ICs were filled with saline and capped (Supplementary Table S1; Supplementary Data are available online at www.liebertpub.com/dia). Insulin PK (Cmax, tmax, AUC, AUC60) following a 5-U bolus were evaluated on days 1, 3, and 5. The tissue surrounding the 72 CSII was excised and pathologically analyzed to elucidate the relationship between the PK of insulin absorption and the inflammatory tissue response to trauma and the CSII cannula.
The study was performed in six nondiabetic ambulatory female swine (68.5 ± 3.6 kg). The protocol was approved by the Institutional Animal Care & Use Committee of Thomas Jefferson University. […] The CVC ports were flushed every 1–3 days using a Huber needle and low-dose heparin solution. One week later, each swine was given general anesthesia and six CCs (Inset™; UnoMedical, Denmark) and six ICs were inserted into the subcutaneous tissue of the abdomen using an aseptic technique according to the manufacturer's instructions. In total, 72 CSII were implanted in six swine.
Two CCs and two ICs were connected to insulin pumps (OneTouch Ping; Animas Corporation, West Chester, PA) containing rapid acting lispro insulin. Two CCs and two ICs were connected to insulin pumps containing saline solution. […] CSII were secured with Tegaderm™ adhesive bandages and the eight insulin pumps were secured within the pockets of a custom vest (Lomir Biomedical, Inc., Supplementary Fig. S2). Insulin lispro was continuously infused through the four CSII catheters at a low basal rate (0.2 U/h/catheter = 0.8 U/h). Insulin and saline were infused using the same basal/bolus pattern throughout the 5-day study.
PK studies were performed on days 1, 3, and 5 after CSII insertion. On day 1, animals recovered from general anesthesia for ∼2 h before starting the PK study. Blood was sampled from a CVC every 10 min for ∼2 h, followed by every 15 min for 1 h before administering the second bolus and repeating the sampling schedule. When blood sample acquisition from a CVC was not possible, samples were obtained from the alternate CVC or occasionally omitted. The swine were able to stand up, lie down, and consume food (apples, biscuits) and water during the PK study. The concentration of blood glucose (BG) was measured in duplicate using the YSI analyzer. Samples were centrifuged to plasma and stored at −80°C for subsequent insulin assay. A stable baseline was established for ∼30 min (three to five BG values).
We then infused a 5-U bolus of insulin into a CC or an IC in a randomized order. The concentration of BG was maintained between 100 and 160 mg/dL by adjusting an intravenous infusion of 20% dextrose every 5–10 min for 3 h. A second baseline was then established for ∼30 min to ensure that BG levels have returned to baseline values after the morning insulin bolus, followed by a 5-U bolus of insulin infused into the alternate CSII catheter. The afternoon PK study ended ∼3 h later. Thus, two PK studies were performed on days 1, 3, and 5 in the same swine using the same CC and IC each day.
The concentration of lispro insulin was measured in plasma samples by PreClinOmics, Inc. (Indianapolis, IN) using a porcine insulin ELISA and an Iso-insulin ELISA (Mercodia AB, Uppsala, Sweden). The lispro insulin concentration was calculated by subtracting the porcine insulin from the total insulin concentration. […]

[1] = day 5, 5-U bolus via CC, Mean±SD of swine 2-6 (Table S4), SD
[2] = day 5, 5-U bolus via CC, individual animal: swine 2
[3] = day 5, 5-U bolus via CC, individual animal: swine 3
[4] = day 5, 5-U bolus via CC, individual animal: swine 4
[5] = day 5, 5-U bolus via CC, individual animal: swine 5
[6] = day 5, 5-U bolus via CC, individual animal: swine 6
[7] = day 5, 5-U bolus via IC (pump occlusion alarm during bolus), individual animal: swine 3
[8] = day 5, 5-U bolus via IC (pump occlusion alarm during bolus), individual animal: swine 4
[9] = day 5, 5-U bolus via IC (pump occlusion alarm during bolus), individual animal: swine 5
[10] = day 5, 5-U bolus via IC, Mean±SD of swine 1-6 (Table S4), SD
[11] = day 5, 5-U bolus via IC, individual animal: swine 1
[12] = day 5, 5-U bolus via IC, individual animal: swine 2
[13] = day 5, 5-U bolus via IC, individual animal: swine 6
[14] = swine, 5-U s.c. bolus via CC, day 1, n = 5, SD
[15] = swine, 5-U s.c. bolus via CC, day 3, n = 5, SD
[16] = swine, 5-U s.c. bolus via CC, day 5, n = 5, SD
[17] = swine, 5-U s.c. bolus via IC, day 1, n = 6, SD
[18] = swine, 5-U s.c. bolus via IC, day 3, n = 6, SD
[19] = swine, 5-U s.c. bolus via IC, day 5, n = 6, SD

Substance: insulin lispro
- Cmax [1]: 114.66±30 mUL
- tmax [1]: 12.00 ± 4 min
- Cmax [2]: 113.43 mUL
- tmax [2]: 10 min
- AUC [3]: 119.45 mULh
- Cmax [3]: 116.16 mUL
- tmax [3]: 20 min
- AUC [4]: 57.25 mULh
- Cmax [4]: 156.62 mUL
- tmax [4]: 10 min
- AUC [5]: 48.26 mULh
- Cmax [5]: 115.52 mUL
- tmax [5]: 10 min
- AUC [6]: 54.47 mULh
- Cmax [6]: 71.56 mUL
- tmax [6]: 10 min
- AUC [7]: 54.83 mULh
- Cmax [7]: 85.06 mUL
- tmax [7]: 30 min
- AUC [8]: 100.49 mULh
- Cmax [8]: 269.32 mUL
- tmax [8]: 20 min
- AUC [9]: 57.08 mULh
- Cmax [9]: 131.09 mUL
- tmax [9]: 10 min
- AUC [10]: 40.96±38 mULh
- Cmax [10]: 105.08±88 mUL
- tmax [10]: 33.33 ± 19 min
- AUC [11]: 28.30 mULh
- Cmax [11]: 68.17 mUL
- tmax [11]: 60 min
- AUC [12]: 1.77 mULh
- Cmax [12]: 47.10 mUL
- tmax [12]: 50 min
- AUC [13]: 3.27 mULh
- Cmax [13]: 29.76 mUL
- tmax [13]: 30 min
- Insulin absorption, range between animals (swine, 5-U bolus via IC, day 3, range over six ICs): 9–132 mU/L*h
- tmax (time-to-peak) [14]: 35.0 ± 17.3 min
- AUC60 (0-60 min after bolus) [14]: 50.9 ± 12.9 mU/L·h
- Cmax (maximal plasma insulin level) [14]: 90.7 ± 26.8 mU/L
- tmax (time-to-peak) [15]: 20.0 ± 12.2 min
- AUC60 (0-60 min after bolus) [15]: 47.0 ± 25.6 mU/L·h
- AUC (0-160 min after bolus, baseline subtracted) [15]: 63.1 ± 22.8 mU/L*h
- Cmax (maximal plasma insulin level) [15]: 73.9 ± 41.0 mU/L
- AUC60 (0-60 min after bolus) [16]: 54.9 ± 20.8 mU/L·h
- AUC (0-160 min after bolus, baseline subtracted) [16]: 71.1 ± 29.4 mU/L*h
- Cmax (maximal plasma insulin level) [16]: 114.7 ± 30.1 mU/L
- tmax (time-to-peak) [17]: 43.3 ± 28.8 min
- AUC60 (0-60 min after bolus) [17]: 44.3 ± 23.2 mU/L·h
- Cmax (maximal plasma insulin level) [17]: 120.0 ± 59.3 mU/L
- tmax (time-to-peak) [18]: 20.0 ± 6.3 min
- AUC60 (0-60 min after bolus) [18]: 42.7 ± 40.0 mU/L·h
- AUC (0-160 min after bolus, baseline subtracted) [18]: 63.1 ± 51.8 mU/L*h
- Cmax (maximal plasma insulin level) [18]: 115.0 ± 86.2 mU/L
- AUC60 (0-60 min after bolus) [19]: 29.0 ± 31.3 mU/L·h
- AUC (0-160 min after bolus, baseline subtracted) [19]: 40.1 ± 37.6 mU/L*h
- Cmax (maximal plasma insulin level) [19]: 105.1 ± 87.7 mU/L
- AUC (0-160 min after bolus, baseline subtracted) (swine, 5-U s.c. bolus via commercial CSII catheter (CC), day 1 of wear-time, n = 5 (AUC of swine 6 not calculable), SD): 82.7 ± 37.6 mU/L*h
- AUC (0-160 min after bolus, baseline subtracted) (swine, 5-U s.c. bolus via investigational CSII catheter (IC), day 1, n = 6, SD): 68.5 ± 36.0 mU/L*h
